B1: RhT5 94–141 (Trim5α Bbox domain alone, residues 94–141) (domain or fragment, Rhesus macaque, UniProt Q0PF16 94-141, looked up)
chain: VDHCARHGEKLLLFCQEDSKVICWLCERSQEHRGHHTFLMEEVAQEYH
notes: Trim5α, Rhesus macaque, Bbox domain, residues 94–141; Cloned into pET47b (N-terminal His-tag) or pET49b (N-terminal GST-tag); purified by IMAC, so the His-tag vector is surmised; also called RhT5α 94–141; Bbox only construct; source: E. coli BL21(DE3), purified (IMAC, 3C cleavage, anion exchange, SEC); not shown: His-tag, N-terminal, cleaved
B2: RhT5 88–261dCC (wild type) (domain or fragment, Rhesus macaque)
chain: PEEGQKVDHCARHGEKLLLFCQEDSKVICWLCERSQEHRGHHTFLMEEVAQEYHVKLQTALEMLRQKGGDPYMRELISELEHRLQGSMMDLLQGVDGIIKRIEN
notes: Trim5α, Rhesus macaque, Bbox-CC, residues Pro88-Lys154; Trim5α, Rhesus macaque, CC-L2, residues Tyr229-Asn261; In a monomer-trimer equilibrium; Vector pET47b or pET49b; IMAC purification, so the His-tag is surmised; also called RhT5 88–216dCC (as printed once); source: E. coli BL21(DE3), purified (IMAC, 3C cleavage, anion exchange, SEC); not shown: His-tag, N-terminal, cleaved
B3: RhT5 1–261dCC (RhT5 1–261Δ155–228), wild type (domain or fragment, Rhesus macaque)
chain: MASGILLNVKEEVTCPICLELLTEPLSLHCGHSFCQACITANHKKSMLYKEGERSCPVCRISYQPENIQPNRHVANIVEKLREVKLSPEEGQKVDHCARHGEKLLLFCQEDSKVICWLCERSQEHRGHHTFLMEEVAQEYHVKLQTALEMLRQKGGDPYMRELISELEHRLQGSMMDLLQGVDGIIKRIEN
notes: Trim5α, Rhesus macaque, RING, L1, Bbox and start of the coiled-coil, residues 1–154; In a monomer-trimer equilibrium (trimer mass printed 67.8 kDa); also called Wt; source: expressed in LB broth with IPTG; purified (amylose resin, on column 3C protease cleavage, anion exchange); not shown: MBP, C-terminal, cleaved

Tests used:
[1] = biological target: the molecule itself; assay: AUC; sedimentation velocity, c(S) analysis, and isotherm of the weight-averaged S fit to a monomer-trimer model (monomer to trimer, RhT5 1–261dCC); 20 °C; 10 mM Tris/HCl pH 7.8, 150 mM NaCl; 50 krpm (RhT5 94–141, RhT5 88–261dCC) or 38 krpm (RhT5 1–261dCC)
[2] = biological target: the molecule itself; assay: AUC; multi-speed sedimentation equilibrium; monomer to trimer; three concentrations (0.125, 0.25, 0.5 mg/ml); 14,000, 18,000 and 22,000 rpm; 20 °C; 10 mM Tris/HCl pH 7.8, 150 mM NaCl; fit in SEDPHAT

| Protein | stoichiometry N [1] | stoichiometry N [2] |
| --- | --- | --- |
| B1 | 2 | – |
| B2 | – | 3 |
| B3 | 3 | – |

Reference: article PMC4882581, “Characterisation of assembly and ubiquitylation by the RBCC motif of Trim5α” (Scientific Reports, 2016)
